{
  "source": "the PETadex activity labels (doi:10.1021/acscatal.9b00568)",
  "proteins": {"B1": {"name": "unnamed (protein)", "chain": "MNFPRASRLMQAAVLGGLMAVSAAATAQTNPYARGPNPTAASLEASAGPFTVRSFTVSRPSGYGAGTVYYPTNAGGTVGAIAIVPGYTARQSSIKWWGPRLASHGFVVITIDTNSTLDQPESRSSQQMAALRQVASLNGTSSSPIYGKVDTARMGVMGWSMGGGGSLISAANNPSLKAAAAQAPWHSSTNFSSVTVPTLIFACENDSIAPVNSSALPIYDSMSRNAKQFLEINGGSHSCANSGNSNQALIGKKGVAWMKRFMDNDTRYSTFACENPNSTRVSDFRTANCS"}, "B2": {"name": "unnamed (protein)", "chain": "B1 chain with E121S, A181P, H186I"}, "B3": {"name": "unnamed (protein)", "chain": "B1 chain with E121D"}, "B4": {"name": "unnamed (protein)", "chain": "B1 chain with E121S, A181P"}, "B5": {"name": "unnamed (protein)", "chain": "B1 chain with E121D, A181P, R280A"}, "B6": {"name": "unnamed (protein)", "chain": "B1 chain with A181P"}},
  "note": "Changes are numbered by the printed parent chain.",
  "data": [
    {"substrate": "PET", "experiment": "Proxy for plastic degradation [HPLC-UV]", "details": "pH 9; 30 °C; 24 h", "units": {"Proxy for plastic degradation": "µM"}, "values": [
      {"protein": "B1", "Proxy for plastic degradation": 10.6},
      {"protein": "B2", "Proxy for plastic degradation": 1.3},
      {"protein": "B3", "Proxy for plastic degradation": 13.4},
      {"protein": "B4", "Proxy for plastic degradation": 10.4},
      {"protein": "B5", "Proxy for plastic degradation": 22.2},
      {"protein": "B6", "Proxy for plastic degradation": 18.8}
    ]},
    {"substrate": "PET", "experiment": "Proxy for plastic degradation [HPLC-UV]", "details": "pH 9; 30 °C; 72 h", "units": {"Proxy for plastic degradation": "µM"}, "values": [
      {"protein": "B1", "Proxy for plastic degradation": 13.7},
      {"protein": "B2", "Proxy for plastic degradation": 2.4},
      {"protein": "B3", "Proxy for plastic degradation": 18.9},
      {"protein": "B4", "Proxy for plastic degradation": 12.8},
      {"protein": "B5", "Proxy for plastic degradation": 57.2},
      {"protein": "B6", "Proxy for plastic degradation": 30.5}
    ]},
    {"substrate": "PET", "experiment": "Proxy for plastic degradation [HPLC-UV]", "details": "pH 9; 40 °C; 24 h", "units": {"Proxy for plastic degradation": "µM"}, "values": [
      {"protein": "B1", "Proxy for plastic degradation": 13.9},
      {"protein": "B2", "Proxy for plastic degradation": 1.2},
      {"protein": "B3", "Proxy for plastic degradation": 18},
      {"protein": "B4", "Proxy for plastic degradation": 8.7},
      {"protein": "B5", "Proxy for plastic degradation": 69.8},
      {"protein": "B6", "Proxy for plastic degradation": 38.7}
    ]},
    {"substrate": "PET", "experiment": "Proxy for plastic degradation [HPLC-UV]", "details": "pH 9; 40 °C; 72 h", "units": {"Proxy for plastic degradation": "µM"}, "values": [
      {"protein": "B1", "Proxy for plastic degradation": 19.8},
      {"protein": "B2", "Proxy for plastic degradation": 6.9},
      {"protein": "B3", "Proxy for plastic degradation": 25.3},
      {"protein": "B4", "Proxy for plastic degradation": 19.7},
      {"protein": "B5", "Proxy for plastic degradation": 93.6},
      {"protein": "B6", "Proxy for plastic degradation": 52.2}
    ]}
  ]
}
